Assay results: US9255257B2, “PmST1 mutants for chemoenzymatic synthesis of sialyl lewis X compounds” (THE REGENTS OF THE UNIVERSITY OF CALIFORNIA, priority 2011, dated 2016)
Residue numbers refer to the chain shown, from its start. Names and notes keep the numbering of the source.

Legend:
[1] = tested on: Cc1cc(=O)oc2cc(O[C@@H]3O[C@H](CO)[C@@H](O[C@@H]4O[C@H](CO)[C@H](O)[C@H](O)[C@H]4O)[C@H](O)[C@H]3O)ccc12; test: α2-3-sialyltransferase activity, LacβMU as acceptor; type: biochemical, Pasteurella multocida; conditions: other: apparent, acceptor, CMP-Neu5Ac 1 mM, Tris-HCl pH 8.5, 37° C.
Procedure: (§1) Site-directed mutagenesis, expression and purification of PmST1 mutants. Site-directed mutagenesis was performed using the QuikChange multi-site-directed mutagenesis kit from Stratagene according to the manufacturer's protocol. The primers used were 5′-[…]-3′ (SEQ ID NO:35) for M144D; 5′-[…]a[…] -3′ (SEQ ID NO:36) for M144H; 5′-[…]-3′ (SEQ ID NO:37) for A35D; and 5′-[…]-3′ (SEQ ID NO:38) for A35H. The expression and purification of the mutants were performed as previously described for the WT PmST1 .
(§2) Kinetics of the α2-3-sialyltransferase activity of PmST1 mutants by HPLC analysis. With LacβMU as the acceptor substrate, the reactions were performed in duplicate at 37° C. for 10 min (M144D) or 4 min (M144H) in a reaction mixture (10 μL) containing Tris-HCl (100 mM, pH 8.5), an enzyme (5 μg mL^−1), and different concentrations (0.2, 0.5, 1.0, 2.0, and 5.0 mM) of LacβMU with a fixed concentration (1 mM) of CMP-Neu5Ac or different concentrations (0.2, 0.5, 1.0, 2.0, 5.0, and 10.0 mM) of CMP-Neu5Ac with a fixed concentration (1 mM) of LacβMU. With Le^xβMU as the acceptor substrate, the reactions were carried out in duplicate at 37° C. for 9 min (M144D) or 10 min (M144H) in a reaction mixture (10 μL) containing CAPSO (100 mM, pH 9.5), an enzyme (M144D, 39 μg mL^−1 or M144H, 5 μg mL^−), and various concentrations of Le^xβMU (1.0, 5.0, 10.0, 15.0, 25.0, and 35.0 mM) with a fixed concentration (1 mM) of CMP-Neu5Ac or various concentrations (0.2, 0.5, 1.0, 2.0, 5.0, 10.0, 20.0, and 40.0 mM) of CMP-Neu5Ac with a fixed concentration (1 mM) of Le^xβMU. Reactions were stopped by adding 10 μL of pre-chilled ethanol. The mixtures were incubated on ice for 30 min and centrifuged at 13,000 rpm for 5 min. The supernatants were diluted with 25% acetonitrile and kept on ice until aliquots of 8 μL were injected and analyzed by the Shimadzu LC-6AD system equipped with a membrane on-line degasser, a temperature control unit, and a fluorescence detector (Shimadzu RF-10AXL). A reverse-phase Premier C18 column (250×4.6 mm i.d., 5 μm particle size, Shimadzu) protected with a C18 guard column cartridge was used. The mobile phase was 25% acetonitrile. The fluorophore (MU)-labeled compounds were detected by excitation at 325 nm and emission at 372 nm. The apparent kinetic parameters were obtained by fitting the experimental data (the average values of duplicate assay results) into the Michaelis-Menten equation using Grafit 5.0.

[2] = tested on: CC(=O)N[C@H]1[C@H]([C@H](O)[C@H](O)CO)O[C@](OP(=O)(O)OC[C@H]2O[C@@H](n3ccc(N)nc3=O)[C@H](O)[C@@H]2O)(C(=O)O)C[C@@H]1O; test: as above; type: biochemical, Pasteurella multocida; conditions: other: apparent, donor, LacβMU 1 mM, Tris-HCl pH 8.5, 37° C.
Procedure: as §1, §2

[3] = tested on: CC(=O)N[C@H]1[C@H]([C@H](O)[C@H](O)CO)O[C@@](O[C@H]2[C@@H](O)[C@@H](CO)O[C@@H](O[C@H]3[C@H](O)[C@@H](O)[C@H](Oc4ccc5c(C)cc(=O)oc5c4)O[C@@H]3CO)[C@@H]2O)(C(=O)O)C[C@@H]1O; test: α2-3-sialidase activity, Neu5Acα2-3LacβMU as substrate; type: biochemical, Pasteurella multocida; conditions: other: apparent, MES pH 5.5, 37° C.
Procedure: as §1
Kinetics of the α2-3-sialidase activity of PmST1 mutants. The reactions were performed in duplicate in a total volume of 10 μL at 37° C. for 60 min (M144D) or 15 min (M144H) in MES buffer (100 mM, pH 5.5) containing Neu5Acα2-3LacβMU (0.4, 1, 2, 4, 10, 20, 40 and 60 mM) and an enzyme (M144H, 1.36 mg mL^−1 or M144D, 1.05 mg mL^−1). Sample treatment after the reaction and analysis were carried out by HPLC similar to that described above for the α2-3-sialyltransferase assays.

[4] = tested on: CC(=O)N[C@H]1[C@H]([C@H](O)[C@H](O)CO)O[C@](OP(=O)(O)OC[C@H]2O[C@@H](n3ccc(N)nc3=O)[C@H](O)[C@@H]2O)(C(=O)O)C[C@@H]1O; test: α2-3-sialyltransferase activity, Le^xβMU as acceptor; type: biochemical, Pasteurella multocida; conditions: other: apparent, donor, Le^xβMU 1 mM, CAPSO pH 9.5, 37° C.
Procedure: as §1, §2

[5] = tested on: CC(=O)N[C@H]1[C@H](Oc2ccc3c(C)cc(=O)oc3c2)O[C@H](CO)[C@@H](O[C@@H]2O[C@H](CO)[C@H](O)[C@H](O)[C@H]2O)[C@@H]1O[C@@H]1O[C@@H](C)[C@@H](O)[C@@H](O)[C@@H]1O; test: as above; type: biochemical, Pasteurella multocida; conditions: other: apparent, acceptor, CMP-Neu5Ac 1 mM, CAPSO pH 9.5, 37° C.
Procedure: as §1, §2

[6] = tested on: CC(=O)N[C@H]1[C@H]([C@H](O)[C@H](O)CO)O[C@](OP(=O)(O)OC[C@H]2O[C@@H](n3ccc(N)nc3=O)[C@H](O)[C@@H]2O)(C(=O)O)C[C@@H]1O; test: CMP-Neu5Ac (donor) hydrolysis activity, capillary electrophoresis; type: biochemical, Pasteurella multocida; conditions: other: apparent, Tris-HCl pH 8.5, 37° C., 15 min
Procedure: as §1
Kinetics of the donor hydrolysis activity of PmST1 and mutants by capillary electrophoresis analysis. […] The reactions were stopped by adding 10 μL of pre-chilled ethanol. The mixtures were incubated on ice for 30 min and centrifuged at 13,000 rpm for 5 min. The supernatants were diluted with borate buffer (25 mM, pH 9.5) and aliquotes of 5 μL each were injected to a Beckman Coulter P/ACE™ MDQ Capillary Electrophoresis system equipped with a capillary (60 cm×75 μm i.d.) and monitored at 254 nm. The apparent kinetic parameters were obtained by fitting the experimental data (the average values of duplicate assay results) into the Michaelis-Menten equation using Grafit 5.0.

[7] = Apparent kinetics of the α2-3-sialidase activity (HPLC, fluorescent sialoside substrate); type: biochemical; conditions: substrate Neu5Acα2-3LacβMU
Procedure: All the sialidase and α2-3-sialyltransferase assays were performed in an HPLC system. Reactions were stopped by adding 10 μL of ethanol. […] The mobile phase was 25% acetonitrile.
Kinetics of the α2-3-sialidase activity of PmST1 mutants.

[8] = Thermal stability studies by HPLC; type: physicochemical; conditions: incubating at 37° C. for up to 2 hours
Procedure: Stability studies by HPLC. Thermal stability studies were carried out by incubating wild-type PmST1 or E271F/R313Y mutant solution (20 μg mL^−1) at 37° C. Samples were withdrawn at various time intervals for enzyme activity assays.

[9] = HPLC time course of PmST1-catalyzed α2-3-sialylation of Le^xβMU; type: biochemical; conditions: Le^xβMU 1 mM, one equivalent of CMP-Neu5Ac
Source text: Numbers in parentheses represent the % consumption of CMP-Neu5Ac by capillary electrophoresis (CE) assays.
In fact, donor hydrolysis has been observed in other glycosyltransferase-catalyzed reactions that lead to lower synthetic yields. […] Two recent papers discussed the donor hydrolysis activities of human blood group A and B glycosyltransferases (GTA and GTB) which are Mn^2+-dependent and the UDP-Gal hydrolysis activity of GTB is increased in the presence of an acceptor substrate analog. Nevertheless, the effect of donor hydrolysis of glycosyltransferases on glycosylation processes has not been investigated in detail. In addition, no strategy has been reported for improving the yields of glycosyltransferase-catalyzed reactions by decreasing donor hydrolysis activity.

[10] = α2-3-sialidase activity assay with sialyl Le^x substrate (HPLC); type: biochemical; conditions: substrate 1 mM, enzyme 4 mg mL^−1, MES pH 5.5, 37° C.
Procedure: The α2-3-sialidase activity assays of PmST1 and mutants. The reactions were carried out in duplicate in a total volume of 10 μL at 37° C. for 20 hr in MES buffer (100 mM, pH 5.5) containing Neu5Acα2-3Le^xβMU (1 mM) and an enzyme (4 mg mL^−1). Aliquots of 1 μL were withdrawn at 1 hr, 6 hr and 20 hr, and analyzed by HPLC as described above for the α2-3-sialyltransferase assays.

Molecule: Pasteurella multocida PmST1 mutant M144D of SEQ ID NO: 13 (M120D of Δ24PmST1, SEQ ID NO: 3) (Pasteurella multocida; M144D)
- Km ([1]; M144D): 12 ± 1 mM
- Km ([2]; M144D): 0.30 ± 0.05 mM
- Km ([3]; M144D, 60 min): 20 ± 2 mM
- Km ([4]; M144D): 2.1 ± 0.1 mM
- Km ([5]; M144D): 13 ± 2 mM
- Km ([6]; M144D): 7.3 ± 0.5 mM

Molecule: Pasteurella multocida PmST1 mutant M144H of SEQ ID NO: 13 (M120H of Δ24PmST1, SEQ ID NO: 5) (Pasteurella multocida; M144H)
- Km ([1]; M144H): 0.79 ± 0.04 mM
- Km ([2]; M144H): 0.81 ± 0.06 mM
- Km ([3]; M144H, 15 min): 1.7 ± 0.3 mM
- Km ([4]; M144H): 0.4 ± 0.05 mM
- Km ([5]; M144H): 8.1 ± 0.9 mM
- Km ([6]; M144H): 13 ± 3 mM

B1: E271F/R313Y (protein, listed as Pasteurella multocida)
chain: MKNRRLNFKLFFLIIFSLFSTLSWSKTITLYLDPASLPALNQLMDFTQNNEDKTHPRIFGLSRFKIPDNIITQYQNIHFVELKDNRPTEALFTILDQYPGNIELNIHLNIAHSVQLIRPILAYRFKHLDRVSIQQLNLYDDGSMEYVDLEKEENKDISAEIKQAEKQLSHYLLTGKIKFDNPTIARYVWQSAFPVKYHFLSTDYFEKAEFLQPLKEYLAENYQKMDWTAYQQLTPEQQAFYLTLVGFNDEVKQSLEVQQAKFIFTGTTTWFGNTDVREYYAQQQLNLLNHFTQAEGDLFIGDHYKIYFKGHPYGGEINDYILNNAKNITNIPANISFEVLMMTGLLPDKVGGVASSLYFSLPKEKISHIIFTSNKQVKSKEDALNNPYVKVMRRLGIIDESQVIFWDSLKQL
modifications: PmST1 wild-type glycosyltransferase family 80 (GT80), GT80 sialyltransferase, Pm0188Ph
- decrease in sialidase kcat (turnover number) compared to wild-type PmST1 [7]: 277 fold
- decrease of α2-3-sialidase activity (catalytic efficiency kcat/Km) compared to wild-type PmST1 [7]: 6,333 fold
- increase in sialidase Km value compared to wild-type PmST1 [7]: 22.5 fold
- thermal stability of α2-3-sialyltransferase activity (FIG. 3, in words) [8]: did not decrease their activities significantly

B2: WT: multifunctional α2-3-sialyltransferase from Pasteurella multocida (PmST1), wild type sequence SEQ ID NO: 13; control enzyme (protein, listed as Pasteurella multocida)
chain: B1 chain with F271E, Y313R
modifications: PmST1 wild-type glycosyltransferase family 80 (GT80), GT80 sialyltransferase, Pm0188Ph
notes: control enzyme
- time to reach yield plateau [9]: ≤ 2 min
- yield plateau of sialylation of Le^xβMU [9]: 1.1-1.3%
- thermal stability of α2-3-sialyltransferase activity (FIG. 3, in words) [8]: did not decrease their activities significantly
- Neu5Ac cleaved from Neu5Acα2-3Le^xβMU ([10]; 1 h): 2.0%
- Neu5Ac cleaved from Neu5Acα2-3Le^xβMU ([10]; 6 h): 7.0%
- Neu5Ac cleaved from Neu5Acα2-3Le^xβMU ([10]; 20 h): 7.5%
